Measured values taken from patent publication US20250085286A1.

Target: HRP-labelled monoclonal antibody targeting PRO-C22
Assay: competitive ELISA, standard peptide against coated Biotin-… for the HRP-mAb

Sequence of HRP-labelled monoclonal antibody targeting PRO-C22 (VH, as listed by the source limits assumed, chain 1 of 2): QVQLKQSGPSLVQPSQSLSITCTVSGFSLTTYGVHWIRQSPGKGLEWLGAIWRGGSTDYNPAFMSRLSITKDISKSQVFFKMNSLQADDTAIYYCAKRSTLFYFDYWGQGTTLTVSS
Sequence of HRP-labelled monoclonal antibody targeting PRO-C22 (VL, as listed by the source limits assumed, chain 2 of 2): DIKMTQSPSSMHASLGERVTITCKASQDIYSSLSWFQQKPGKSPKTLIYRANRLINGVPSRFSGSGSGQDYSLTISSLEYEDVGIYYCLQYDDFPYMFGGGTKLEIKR

IC50: 8.15 ng/mL
Binder: GPPGPPGQCDPSQCAYFASLAARPGNVKGP [30 AA standard peptide …]
